Laboratory results taken from patent publication US20140087995A1 (published 2014).
Numbered stars: 1 amine (or outer) side, 2 acyl side, 3 side chain; on linkers, the order of the positions; unused ones are H or OH. Bridge positions count the residues as written; N and C are the ends. Side chains are listed from the residue outwards. Ends that are not written are not given here. * marks the point of attachment. C20 diacid = O=C(O)CCCCCCCCCCCCCCCCCCC(=O)*; γGlu = O=C(O)[C@H](CCC(=O)[*:2])N[*:1]; AEEA = NCCOCCOCC(=O)O

T1: human calcitonin receptor (human, UniProt P30988 25-474)
T1 construct: whole, on cells; Assay used cell membranes, not intact cells; also called hCTR; hCT
T1 sequence (looked up): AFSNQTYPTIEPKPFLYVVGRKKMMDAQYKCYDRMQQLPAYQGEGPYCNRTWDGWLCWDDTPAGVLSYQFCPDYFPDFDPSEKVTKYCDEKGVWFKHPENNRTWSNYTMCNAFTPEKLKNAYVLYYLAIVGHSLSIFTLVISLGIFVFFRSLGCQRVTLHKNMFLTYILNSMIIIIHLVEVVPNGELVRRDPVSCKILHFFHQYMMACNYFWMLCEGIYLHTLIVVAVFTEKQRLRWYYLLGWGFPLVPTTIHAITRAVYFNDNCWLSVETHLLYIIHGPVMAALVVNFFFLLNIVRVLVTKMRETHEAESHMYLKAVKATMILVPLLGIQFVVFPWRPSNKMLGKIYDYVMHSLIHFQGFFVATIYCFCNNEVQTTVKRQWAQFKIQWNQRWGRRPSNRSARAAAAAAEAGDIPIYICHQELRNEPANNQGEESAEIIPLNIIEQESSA

T2: human amylin receptor (amylin 3(a) receptor: human calcitonin receptor with RAMP-3) (human, UniProt P30988 25-474; O60896 24-148)
T2 construct: whole, on cells; Assay used cell membranes of the Amylin 3(a)/CRE-luc BHK cells, not intact cells; also called hAmylin-R; hAmylinR
T2 sequence (looked up) 1: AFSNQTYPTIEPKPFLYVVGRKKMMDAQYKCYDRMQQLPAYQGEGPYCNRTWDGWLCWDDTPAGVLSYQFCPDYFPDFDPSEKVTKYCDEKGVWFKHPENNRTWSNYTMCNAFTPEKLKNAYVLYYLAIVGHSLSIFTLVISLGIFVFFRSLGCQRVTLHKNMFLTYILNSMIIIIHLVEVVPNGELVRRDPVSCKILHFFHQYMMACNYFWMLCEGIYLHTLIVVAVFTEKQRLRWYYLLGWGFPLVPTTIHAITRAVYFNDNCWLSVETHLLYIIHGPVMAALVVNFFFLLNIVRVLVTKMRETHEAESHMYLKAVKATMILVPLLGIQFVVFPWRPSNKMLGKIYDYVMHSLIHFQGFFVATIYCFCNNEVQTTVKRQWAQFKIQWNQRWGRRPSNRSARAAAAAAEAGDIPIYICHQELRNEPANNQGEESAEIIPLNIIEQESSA
T2 sequence (looked up) 2: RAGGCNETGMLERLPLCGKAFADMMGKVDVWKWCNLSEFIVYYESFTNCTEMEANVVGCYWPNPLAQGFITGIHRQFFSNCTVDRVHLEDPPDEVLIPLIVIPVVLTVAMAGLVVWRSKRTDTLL


What was measured:
[1] = molecular target: T1, human calcitonin receptor; test: SPA competition with 125I-calcitonin on membranes of BHK cells with human calcitonin receptor (Assay VII)
Procedure: Membranes were prepared in the following way; the cells were rinsed with PBS and incubated with Versene for approximately 5 min before harvesting. The cells were flushed with PBS and the cell-suspension was centrifuged for 5 min at 1000 rpm. Cells were homogenized (Ultrathurrax) in a buffer containing 20 mM Na-HEPES and 10 mM EDTA (pH 7.4) and centrifuged at 20.000 rpm for 15 min. The resulting pellet was resuspended, homogenized and centrifuged (20.000 rpm, 15 min) in a buffer containing 20 mM Na-HEPES and 0.1 mM EDTA (pH 7.4, buffer 2). The resulting pellet was resuspended in buffer 2 and protein concentration was measured (BCA protein Assay, Pierce). The homogenate was kept cold during the whole procedure. The membranes were kept at −80° C. until use. Assay was performed in a 384 well Optiplate (PerkinElmer) in a total volume of 40 ul. Membranes were mixed with SPA beads. Final concentration of membranes 35 ng/μL final and Final concentration of SPA beads was 0.05 mg/well. Test-compounds were dissolved in DMSO and further diluted in assay buffer (50 mM Hepes, pH 7.4, 1 mM CaCl2, 5 mM MgCl₂, 0.1% OA and 0.02% Tween20). […] The final mixture was incubated for 120 min with shaking at 400 rpm at 25° C. prior to centrifugation (1500 rpm, 10 min). Samples were analyzed on TopCounter™ (Packard). The […] was calculated using (one site binding competition analysis) GraphPad Prism5 as a measure of receptor affinity.

[2] = molecular target: T2, human amylin receptor (amylin 3(a) …); test: SPA competition with 125I-rat amylin on membranes of BHK cells with human calcitonin receptor and RAMP-3 (Assay V)
Procedure: The binding assay was performed using scintillation proximity assay (SPA) beads (RPNQ0001) from PerkinElmer and cell membranes from the Amylin 3(a)/CRE-luc cells (as described in Assay (II)) were used. Membranes were prepared in the following way; the cells were rinsed with PBS and incubated with Versene for approximately 5 min before harvesting. The cells were flushed with PBS and the cell-suspension was centrifuged for 5 min at 1000 rpm. Cells were homogenized (ultrathurrax) in a buffer containing 20 mM Na-HEPES and 10 mM EDTA (pH 7.4) and centrifuged at 20.000 rpm for 15 min. The resulting pellet was resuspended, homogenized and centrifuged (20.000 rpm, 15 min) in a buffer containing 20 mM Na-HEPES and 0.1 mM EDTA (pH 7.4, buffer 2). The resulting pellet was resuspended in buffer 2 and protein concentration was measured (BCA protein Assay, Pierce). The homogenate was kept cold during the whole procedure. The membranes were kept at −80° C. until use. The assay was performed in a 384 well Optiplate (PerkinElmer) in a total volume of 40 ul. Membranes were mixed with SPA beads. Final concentration of membranes 35 ng/μL final and SPA beads was 0.05 mg/well. Test-compounds were dissolved in DMSO and further diluted in assay buffer (50 mM Hepes, pH 7.4, 1 mM CaCl2, 5 mM MgCl₂, 0.1% OA and 0.02% Tween20). […] The final mixture was incubated with shaking at 400 rpm for 120 min at 25° C. prior to centrifugation (1500 rpm, 10 min). Samples were analyzed on TopCounter™ (Packard). The IC₅₀ was calculated using (one site binding competition analysis) GraphPad Prism5 as a measure of receptor affinity.

[3] = molecular target: T1, human calcitonin receptor; test: ratio IC50 hCTR / IC50 hAmylin-R (reference: human amylin receptor), SPA competition assays
Procedure: The resulting pellet was resuspended, homogenized and centrifuged (20.000 rpm, 15 min) in a buffer containing 20 mM Na-HEPES and 0.1 mM EDTA (pH 7.4, buffer 2). The resulting pellet was resuspended in buffer 2 and protein concentration was measured (BCA protein Assay, Pierce). The homogenate was kept cold during the whole procedure. The membranes were kept at −80° C. until use. The assay was performed in a 384 well Optiplate (PerkinElmer) in a total volume of 40 ul. Membranes were mixed with SPA beads. Final concentration of membranes 35 ng/μL final and SPA beads was 0.05 mg/well. Test-compounds were dissolved in DMSO and further diluted in assay buffer (50 mM Hepes, pH 7.4, 1 mM CaCl2, 5 mM MgCl₂, 0.1% OA and 0.02% Tween20). […] The final mixture was incubated with shaking at 400 rpm for 120 min at 25° C. prior to centrifugation (1500 rpm, 10 min). Samples were analyzed on TopCounter™ (Packard). The IC₅₀ was calculated using (one site binding competition analysis) GraphPad Prism5 as a measure of receptor affinity.
Membranes were prepared in the following way; the cells were rinsed with PBS and incubated with Versene for approximately 5 min before harvesting. The cells were flushed with PBS and the cell-suspension was centrifuged for 5 min at 1000 rpm. Cells were homogenized (Ultrathurrax) in a buffer containing 20 mM Na-HEPES and 10 mM EDTA (pH 7.4) and centrifuged at 20.000 rpm for 15 min. The resulting pellet was resuspended, homogenized and centrifuged (20.000 rpm, 15 min) in a buffer containing 20 mM Na-HEPES and 0.1 mM EDTA (pH 7.4, buffer 2). The resulting pellet was resuspended in buffer 2 and protein concentration was measured (BCA protein Assay, Pierce). The homogenate was kept cold during the whole procedure. The membranes were kept at −80° C. until use. Assay was performed in a 384 well Optiplate (PerkinElmer) in a total volume of 40 ul. Membranes were mixed with SPA beads.

Row | IC50 [1] [nM] | IC50 [2] [nM] | Ratio hCT/hAmylin binding [3] | Binder
1 | 2.57 | 0.061 | 42.2 | K([AEEA-C20 diacid])CNTATCATQRLAHFLRHSSPNFGAIPSSTNVGSNTY-NH2 (disulfide 2-7; N-terminus assumed; SMILES CC[C@H](C)[C@H](NC(=O)[C@H](C)NC(=O)CNC(=O)[C@H](Cc1ccccc1)NC(=O)[C@H](CC(N)=O)NC(=O)[C@@H]1CCCN1C(=O)[C@H](CO)NC(=O)[C@H](CO)NC(=O)[C@H](Cc1c[nH]cn1)NC(=O)[C@H](CCCNC(=N)N)NC(=O)[C@H](CC(C)C)NC(=O)[C@H](Cc1ccccc1)NC(=O)[C@H](Cc1c[nH]cn1)NC(=O)[C@H](C)NC(=O)[C@H](CC(C)C)NC(=O)[C@H](CCCNC(=N)N)NC(=O)[C@H](CCC(N)=O)NC(=O)[C@@H](NC(=O)[C@H](C)NC(=O)[C@@H]1CSSC[C@H](NC(=O)[C@@H](N)CCCCNC(=O)COCCOCCNC(=O)CCCCCCCCCCCCCCCCCCC(=O)O)C(=O)N[C@@H](CC(N)=O)C(=O)N[C@@H]([C@@H](C)O)C(=O)N[C@@H](C)C(=O)N[C@@H]([C@@H](C)O)C(=O)N1)[C@@H](C)O)C(=O)N1CCC[C@H]1C(=O)N[C@@H](CO)C(=O)N[C@@H](CO)C(=O)N[C@H](C(=O)N[C@@H](CC(N)=O)C(=O)N[C@H](C(=O)NCC(=O)N[C@@H](CO)C(=O)N[C@@H](CC(N)=O)C(=O)N[C@H](C(=O)N[C@@H](Cc1ccc(O)cc1)C(N)=O)[C@@H](C)O)C(C)C)[C@@H](C)O, also called compound 90) [N^ε1-[2-[2-[2-(19-carboxynonadecanoylamino)ethoxy]ethoxy]acetyl]-[His14,Arg17,Pro21,Pro27]-h-amylin]
2 | 58.9 | 0.568 | 104 | K([AEEA-AEEA-γGlu-C20 diacid])CNTATCATQRLANFLRHSSPNFGAIPSSTNVGHNTY-NH2 (disulfide 2-7; N-terminus assumed; SMILES CC[C@H](C)[C@H](NC(=O)[C@H](C)NC(=O)CNC(=O)[C@H](Cc1ccccc1)NC(=O)[C@H](CC(N)=O)NC(=O)[C@@H]1CCCN1C(=O)[C@H](CO)NC(=O)[C@H](CO)NC(=O)[C@H](Cc1c[nH]cn1)NC(=O)[C@H](CCCNC(=N)N)NC(=O)[C@H](CC(C)C)NC(=O)[C@H](Cc1ccccc1)NC(=O)[C@H](CC(N)=O)NC(=O)[C@H](C)NC(=O)[C@H](CC(C)C)NC(=O)[C@H](CCCNC(=N)N)NC(=O)[C@H](CCC(N)=O)NC(=O)[C@@H](NC(=O)[C@H](C)NC(=O)[C@@H]1CSSC[C@H](NC(=O)[C@@H](N)CCCCNC(=O)COCCOCCNC(=O)COCCOCCNC(=O)CC[C@H](NC(=O)CCCCCCCCCCCCCCCCCCC(=O)O)C(=O)O)C(=O)N[C@@H](CC(N)=O)C(=O)N[C@@H]([C@@H](C)O)C(=O)N[C@@H](C)C(=O)N[C@@H]([C@@H](C)O)C(=O)N1)[C@@H](C)O)C(=O)N1CCC[C@H]1C(=O)N[C@@H](CO)C(=O)N[C@@H](CO)C(=O)N[C@H](C(=O)N[C@@H](CC(N)=O)C(=O)N[C@H](C(=O)NCC(=O)N[C@@H](Cc1c[nH]cn1)C(=O)N[C@@H](CC(N)=O)C(=O)N[C@H](C(=O)N[C@@H](Cc1ccc(O)cc1)C(N)=O)[C@@H](C)O)C(C)C)[C@@H](C)O, also called compound 97)
3 | 61.3 | 0.967 | 63.4 | K([AEEA-AEEA-γGlu-C20 diacid])CNTATCATQRLANFLRHSSPNFGAIPSSTNVGRNTY-NH2 (disulfide 2-7; N-terminus assumed; SMILES CC[C@H](C)[C@H](NC(=O)[C@H](C)NC(=O)CNC(=O)[C@H](Cc1ccccc1)NC(=O)[C@H](CC(N)=O)NC(=O)[C@@H]1CCCN1C(=O)[C@H](CO)NC(=O)[C@H](CO)NC(=O)[C@H](Cc1c[nH]cn1)NC(=O)[C@H](CCCNC(=N)N)NC(=O)[C@H](CC(C)C)NC(=O)[C@H](Cc1ccccc1)NC(=O)[C@H](CC(N)=O)NC(=O)[C@H](C)NC(=O)[C@H](CC(C)C)NC(=O)[C@H](CCCNC(=N)N)NC(=O)[C@H](CCC(N)=O)NC(=O)[C@@H](NC(=O)[C@H](C)NC(=O)[C@@H]1CSSC[C@H](NC(=O)[C@@H](N)CCCCNC(=O)COCCOCCNC(=O)COCCOCCNC(=O)CC[C@H](NC(=O)CCCCCCCCCCCCCCCCCCC(=O)O)C(=O)O)C(=O)N[C@@H](CC(N)=O)C(=O)N[C@@H]([C@@H](C)O)C(=O)N[C@@H](C)C(=O)N[C@@H]([C@@H](C)O)C(=O)N1)[C@@H](C)O)C(=O)N1CCC[C@H]1C(=O)N[C@@H](CO)C(=O)N[C@@H](CO)C(=O)N[C@H](C(=O)N[C@@H](CC(N)=O)C(=O)N[C@H](C(=O)NCC(=O)N[C@@H](CCCNC(=N)N)C(=O)N[C@@H](CC(N)=O)C(=O)N[C@H](C(=O)N[C@@H](Cc1ccc(O)cc1)C(N)=O)[C@@H](C)O)C(C)C)[C@@H](C)O, also called compound 95)
